# Assay results published in PMC11272584 (Nature Metabolism, 2024).
# T1: GIPR E463Q (Homo sapiens, UniProt P48546, E463Q)
# T1 construct: host or cells: HEK293
# T1 sequence (P48546 22-466 E463Q): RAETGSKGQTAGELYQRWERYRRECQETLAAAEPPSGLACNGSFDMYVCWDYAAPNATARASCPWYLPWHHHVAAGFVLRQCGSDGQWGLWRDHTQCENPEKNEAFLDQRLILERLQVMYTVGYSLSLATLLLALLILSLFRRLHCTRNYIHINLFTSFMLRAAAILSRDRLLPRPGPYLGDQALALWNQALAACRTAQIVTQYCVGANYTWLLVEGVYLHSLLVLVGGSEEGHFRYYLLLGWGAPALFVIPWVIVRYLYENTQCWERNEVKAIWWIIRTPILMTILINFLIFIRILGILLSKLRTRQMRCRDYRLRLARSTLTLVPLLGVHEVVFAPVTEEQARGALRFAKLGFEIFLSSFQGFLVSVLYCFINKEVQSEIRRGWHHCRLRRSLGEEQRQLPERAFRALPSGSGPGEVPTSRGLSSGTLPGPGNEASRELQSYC
# T2: GIPR T25R (Homo sapiens, UniProt P48546, T25R)
# T2 construct: host or cells: HEK293
# T2 sequence (P48546 22-466 T25R): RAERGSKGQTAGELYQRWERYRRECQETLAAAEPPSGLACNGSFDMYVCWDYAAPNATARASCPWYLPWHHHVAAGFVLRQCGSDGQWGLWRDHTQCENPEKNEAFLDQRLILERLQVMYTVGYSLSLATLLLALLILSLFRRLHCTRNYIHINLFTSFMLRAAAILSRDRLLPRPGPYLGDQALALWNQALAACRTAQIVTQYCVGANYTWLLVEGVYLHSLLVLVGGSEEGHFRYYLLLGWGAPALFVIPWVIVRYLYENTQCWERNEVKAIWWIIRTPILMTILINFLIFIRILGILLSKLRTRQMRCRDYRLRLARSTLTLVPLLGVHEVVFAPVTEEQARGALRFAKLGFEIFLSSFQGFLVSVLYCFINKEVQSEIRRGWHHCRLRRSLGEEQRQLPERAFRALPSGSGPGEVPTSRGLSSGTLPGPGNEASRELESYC
# T3: GIPR R38L (Homo sapiens, UniProt P48546, R38L)
# T3 construct: host or cells: HEK293
# T3 sequence (P48546 22-466 R38L): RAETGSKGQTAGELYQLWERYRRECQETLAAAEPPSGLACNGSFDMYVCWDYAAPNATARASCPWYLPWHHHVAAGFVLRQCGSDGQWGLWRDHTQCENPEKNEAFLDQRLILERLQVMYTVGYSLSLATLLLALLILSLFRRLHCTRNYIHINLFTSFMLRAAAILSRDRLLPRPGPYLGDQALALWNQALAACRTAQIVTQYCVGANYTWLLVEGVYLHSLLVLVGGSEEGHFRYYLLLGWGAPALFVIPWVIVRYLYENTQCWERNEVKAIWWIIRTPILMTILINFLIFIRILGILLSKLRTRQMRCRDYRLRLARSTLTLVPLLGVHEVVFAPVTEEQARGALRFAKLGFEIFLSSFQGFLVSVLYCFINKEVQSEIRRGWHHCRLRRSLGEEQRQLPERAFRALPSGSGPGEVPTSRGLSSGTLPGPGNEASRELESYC
# T4: GIPR R43G (Homo sapiens, UniProt P48546, R43G)
# T4 construct: host or cells: HEK293
# T4 sequence (P48546 22-466 R43G): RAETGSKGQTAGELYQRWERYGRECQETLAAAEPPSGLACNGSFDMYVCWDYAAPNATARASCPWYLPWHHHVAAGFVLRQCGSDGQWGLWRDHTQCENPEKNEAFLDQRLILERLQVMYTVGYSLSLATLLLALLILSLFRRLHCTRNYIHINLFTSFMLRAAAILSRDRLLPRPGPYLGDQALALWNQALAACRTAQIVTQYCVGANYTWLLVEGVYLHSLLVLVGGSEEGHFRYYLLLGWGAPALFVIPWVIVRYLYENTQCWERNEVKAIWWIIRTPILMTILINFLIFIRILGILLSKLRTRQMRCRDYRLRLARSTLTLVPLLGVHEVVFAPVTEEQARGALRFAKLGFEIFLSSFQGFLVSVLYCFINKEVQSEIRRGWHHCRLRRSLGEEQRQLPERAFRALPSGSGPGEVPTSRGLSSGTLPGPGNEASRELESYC
# T5: GIPR E461* (Homo sapiens, UniProt P48546)
# T5 construct: host or cells: HEK293
# T5 sequence (P48546 22-460 limits assumed): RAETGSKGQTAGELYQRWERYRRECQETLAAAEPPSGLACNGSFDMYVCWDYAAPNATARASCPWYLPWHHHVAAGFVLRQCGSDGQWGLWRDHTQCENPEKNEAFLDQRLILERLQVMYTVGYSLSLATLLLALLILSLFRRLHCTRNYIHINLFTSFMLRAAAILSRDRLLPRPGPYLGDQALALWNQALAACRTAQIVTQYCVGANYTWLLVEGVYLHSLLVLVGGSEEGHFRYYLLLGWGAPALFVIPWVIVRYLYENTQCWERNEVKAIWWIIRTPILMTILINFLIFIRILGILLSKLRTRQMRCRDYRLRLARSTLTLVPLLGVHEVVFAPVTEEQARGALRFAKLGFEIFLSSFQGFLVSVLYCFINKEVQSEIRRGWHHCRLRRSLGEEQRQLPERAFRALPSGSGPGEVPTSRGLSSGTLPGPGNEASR
# Tests used:
# GIPR C84Pfs*70 = assay: Homologous competition binding; parameters: species or system human; key: NB: no binding; details: n = 3
# Procedure: (§1) Binding experiments were performed simultaneously with the same transiently transfected HEK293 cells used for the cAMP experiments to enable the correlation of receptor expression with signalling between assays. In brief, 1 day before the assay, the transfected cells were seeded in a clear 96-well plate. […] On the assay day, the cells were washed twice with 4 °C binding buffer (50 mM HEPES buffer (pH 7.2), 1 mM CaCl2, 5 mM MgCl2 and 0.5% (wt/vol) bovine serum albumin) and incubated for 15 minutes at 4 °C. […] After incubation, the cells were washed in ice-cold binding buffer and lysed with 200 mmol l^−1 NaOH with 1% sodium dodecyl sulphate for 30 min. The gamma radiation was measured with a 2470 Wizard2 Automatic Gamma Counter.
# (§2) To obtain Emax, EC50, Bmax, Kd and IC50 values, we analysed the data with the non-linear regression curve fitting program GraphPad Prism Software 9 (GraphPad).
# (§3) The Bmax was calculated according to the following equation[51]: Bmax=B0×IC50/[L] in which B0 represents the total specific binding and [L] is the ligand concentration. The equilibrium dissociation constant (Kd) was obtained with the equation[51]: Kd=IC50−[L]
# GIPR Y258Sfs*50 = assay: Homologous competition binding; parameters: species or system human; key: NB: no binding; details: n = 4
# Procedure: as §1, §2, §3
# GIPR W90Lfs*17 [1] = assay: Homologous competition binding; parameters: species or system human; details: normalized to WT GIPR; SEM 0.5, n = 3
# Procedure: as §1, §2, §3
# GIPR W90Lfs*17 [2] = assay: cAMP accumulation; assay type: cell-based, human; details: normalized to WT efficacy at 100 pM; n = 5
# Procedure: HEK293 (CRL-1573, American Type Culture Collection) and β-arrestin 1/2 knockout cells, generated from HEK293A[48], were used for cAMP measurement, homologues competition binding and β-arrestin 2 recruitment. For the internalization assay, endosomal signalling and basal receptor localization experiments, HEK293A (R70507, Thermo Fisher) cells were used. Both cell lines were cultured at 5% CO2 at 37 °C in Roswell Park Memorial Institute GlutaMAX-I supplemented with 10% fetal bovine serum, 180 units ml^−1 penicillin, and 45 g ml^−1 streptomycin. For the cAMP and binding experiments, cells were transfected with the calcium phosphate precipitation method[49]. The polyethyleneimine (PEI) transfection method was used for the β-arrestin 2 recruitment assays[50], endosomal signalling and basal receptor localization assays, while the lipofectamine transfection method was used for the internalization assay.
# (§4) cAMP production was measured with the DiscoverX Hithunter cAMP assay according to the manufacturer’s protocol (DiscoverX). […] On the day of the assay, the cells were washed twice with HEPES-buffered saline (HBS) and incubated with HBS and 1 mM 3-isobutyl-1-methylxanthine for 30 min at 37 °C. […] After a 3-h incubation on a shaking table in the dark, the cAMP accumulation was measured based on luminescence with a Perkin Elmer EnVision 2104 Multilabel Microplate Reader. […]
# GIPR E463Q = molecular target: T1, GIPR E463Q; assay: cAMP accumulation; assay type: cell-based
# Procedure: (§5) HEK293 (CRL-1573, American Type Culture Collection) and β-arrestin 1/2 knockout cells, generated from HEK293A[48], were used for cAMP measurement, homologues competition binding and β-arrestin 2 recruitment. […] Both cell lines were cultured at 5% CO2 at 37 °C in Roswell Park Memorial Institute GlutaMAX-I supplemented with 10% fetal bovine serum, 180 units ml^−1 penicillin, and 45 g ml^−1 streptomycin. For the cAMP and binding experiments, cells were transfected with the calcium phosphate precipitation method[49].
# (§6) cAMP production was measured with the DiscoverX Hithunter cAMP assay according to the manufacturer’s protocol (DiscoverX). […] On the day of the assay, the cells were washed twice with HEPES-buffered saline (HBS) and incubated with HBS and 1 mM 3-isobutyl-1-methylxanthine for 30 min at 37 °C. […] After the incubation, the assay medium was removed from the plate and the cells were washed with 30 µl PBS and treated with 40 µl enzyme donor–lysis buffer–chemiluminescent reagents and 10 µl cAMP antibodies for 60 min before 40 µl enzyme acceptor solution added. After a 3-h incubation on a shaking table in the dark, the cAMP accumulation was measured based on luminescence with a Perkin Elmer EnVision 2104 Multilabel Microplate Reader.
# GIPR variants (groups) [3] = assay: β-arrestin 2 recruitment (BRET); details: for In vitro groups (β-arrestin): arr part of the in vitro group; for Beta, Barr: in vitro β-arrestin recruitment per GIPR variant;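 on all read-outs here: BRET readout of β-arrestin 2 recruitment in transiently transfected HEK293 cells expressing WT GIPR or a GIPR variant plus GPCR kinase 2, Rluc8 donor and citrine acceptor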
# GIPR variants (groups) [4] = assay: cAMP accumulation; assay type: cell-based, human; details: for In vitro groups (cAMP): cAMP part of the in vitro group; for percentage_camp: cAMP production compared with WT; for Beta, cAMP: in vitro cAMP production per GIPR variant
# GIPR T25R = molecular target: T2, GIPR T25R; assay: cAMP accumulation; assay type: cell-based
# Procedure: as §5
# cAMP production was measured with the DiscoverX Hithunter cAMP assay according to the manufacturer’s protocol (DiscoverX). […] On the day of the assay, the cells were washed twice with HEPES-buffered saline (HBS) and incubated with HBS and 1 mM 3-isobutyl-1-methylxanthine for 30 min at 37 °C. […] After the incubation, the assay medium was removed from the plate and the cells were washed with 30 µl PBS and treated with 40 µl enzyme donor–lysis buffer–chemiluminescent reagents and 10 µl cAMP antibodies for 60 min before 40 µl enzyme acceptor solution added. After a 3-h incubation on a shaking table in the dark, the cAMP accumulation was measured based on luminescence with a Perkin Elmer EnVision 2104 Multilabel Microplate Reader. […]
# GIPR R38L = molecular target: T3, GIPR R38L; assay: cAMP accumulation; assay type: cell-based
# Procedure: HEK293 (CRL-1573, American Type Culture Collection) and β-arrestin 1/2 knockout cells, generated from HEK293A[48], were used for cAMP measurement, homologues competition binding and β-arrestin 2 recruitment. […] Both cell lines were cultured at 5% CO2 at 37 °C in Roswell Park Memorial Institute GlutaMAX-I supplemented with 10% fetal bovine serum, 180 units ml^−1 penicillin, and 45 g ml^−1 streptomycin. For the cAMP and binding experiments, cells were transfected with the calcium phosphate precipitation method[49]. The polyethyleneimine (PEI) transfection method was used for the β-arrestin 2 recruitment assays[50], endosomal signalling and basal receptor localization assays, while the lipofectamine transfection method was used for the internalization assay.
# as §4
# GIPR R43G = molecular target: T4, GIPR R43G; assay: cAMP accumulation; assay type: cell-based
# Procedure: as §5, §6
# GIPR E461* = molecular target: T5, GIPR E461*; assay: cAMP accumulation; assay type: cell-based
# Procedure: as §5, §6
Molecule,Kd (Binding) (GIPR C84Pfs*70),Binding (Bmax) (GIPR C84Pfs*70; normalized to WT GIPR),Kd (Binding) (GIPR Y258Sfs*50),Binding (Bmax) (GIPR Y258Sfs*50; normalized to WT GIPR),Binding (Bmax) (GIPR W90Lfs*17 [1]),cAMP (Efficacy of 100 pM) (GIPR W90Lfs*17 [2]),Efficacy at 100pmol (cAMP) (GIPR E463Q),In vitro groups (β-arrestin) (GIPR variants (groups) [3]),"Beta, Barr (GIPR variants (groups) [3])",In vitro groups (cAMP) (GIPR variants (groups) [4]),percentage_camp (GIPR variants (groups) [4]),"Beta, cAMP (GIPR variants (groups) [4])",Efficacy at 100pmol (cAMP) (GIPR T25R),Efficacy at 100pmol (cAMP) (GIPR R38L),Efficacy at 100pmol (cAMP) (GIPR R43G),Efficacy at 100pmol (cAMP) (GIPR E461*)
GIP(1-42),NB,NB,NB,NB,1.36,0.531,–,–,–,–,–,–,–,–,–,–
E463Q (protein) RAETGSKGQTAGELYQRWERYRRECQETLAAAEPPSGLACNGSFDMYVCWDYAAPNATARASCPWYLPWHHHVAAGFVLRQCGSDGQWGLWRDHTQCENPEKNEAFLDQRLILERLQVMYTVGYSLSLATLLLALLILSLFRRLHCTRNYIHINLFTSFMLRAAAILSRDRLLPRPGPYLGDQALALWNQALAACRTAQIVTQYCVGANYTWLLVEGVYLHSLLVLVGGSEEGHFRYYLLLGWGAPALFVIPWVIVRYLYENTQCWERNEVKAIWWIIRTPILMTILINFLIFIRILGILLSKLRTRQMRCRDYRLRLARSTLTLVPLLGVHEVVFAPVTEEQARGALRFAKLGFEIFLSSFQGFLVSVLYCFINKEVQSEIRRGWHHCRLRRSLGEEQRQLPERAFRALPSGSGPGEVPTSRGLSSGTLPGPGNEASRELQSYC,–,–,–,–,–,–,0.9097,WT-like_arr,0.4933,WT-like_camp,>50% cAMP,0.9097,–,–,–,–
T25R (protein) RAERGSKGQTAGELYQRWERYRRECQETLAAAEPPSGLACNGSFDMYVCWDYAAPNATARASCPWYLPWHHHVAAGFVLRQCGSDGQWGLWRDHTQCENPEKNEAFLDQRLILERLQVMYTVGYSLSLATLLLALLILSLFRRLHCTRNYIHINLFTSFMLRAAAILSRDRLLPRPGPYLGDQALALWNQALAACRTAQIVTQYCVGANYTWLLVEGVYLHSLLVLVGGSEEGHFRYYLLLGWGAPALFVIPWVIVRYLYENTQCWERNEVKAIWWIIRTPILMTILINFLIFIRILGILLSKLRTRQMRCRDYRLRLARSTLTLVPLLGVHEVVFAPVTEEQARGALRFAKLGFEIFLSSFQGFLVSVLYCFINKEVQSEIRRGWHHCRLRRSLGEEQRQLPERAFRALPSGSGPGEVPTSRGLSSGTLPGPGNEASRELESYC,–,–,–,–,–,–,–,LoF_arr,0.193,WT-like_camp,>50% cAMP,0.6972,0.6972,–,–,–
R38L (protein) RAETGSKGQTAGELYQLWERYRRECQETLAAAEPPSGLACNGSFDMYVCWDYAAPNATARASCPWYLPWHHHVAAGFVLRQCGSDGQWGLWRDHTQCENPEKNEAFLDQRLILERLQVMYTVGYSLSLATLLLALLILSLFRRLHCTRNYIHINLFTSFMLRAAAILSRDRLLPRPGPYLGDQALALWNQALAACRTAQIVTQYCVGANYTWLLVEGVYLHSLLVLVGGSEEGHFRYYLLLGWGAPALFVIPWVIVRYLYENTQCWERNEVKAIWWIIRTPILMTILINFLIFIRILGILLSKLRTRQMRCRDYRLRLARSTLTLVPLLGVHEVVFAPVTEEQARGALRFAKLGFEIFLSSFQGFLVSVLYCFINKEVQSEIRRGWHHCRLRRSLGEEQRQLPERAFRALPSGSGPGEVPTSRGLSSGTLPGPGNEASRELESYC,–,–,–,–,–,–,–,WT-like_arr,0.8228,WT-like_camp,>50% cAMP,0.843,–,0.843,–,–
R43G (protein) RAETGSKGQTAGELYQRWERYGRECQETLAAAEPPSGLACNGSFDMYVCWDYAAPNATARASCPWYLPWHHHVAAGFVLRQCGSDGQWGLWRDHTQCENPEKNEAFLDQRLILERLQVMYTVGYSLSLATLLLALLILSLFRRLHCTRNYIHINLFTSFMLRAAAILSRDRLLPRPGPYLGDQALALWNQALAACRTAQIVTQYCVGANYTWLLVEGVYLHSLLVLVGGSEEGHFRYYLLLGWGAPALFVIPWVIVRYLYENTQCWERNEVKAIWWIIRTPILMTILINFLIFIRILGILLSKLRTRQMRCRDYRLRLARSTLTLVPLLGVHEVVFAPVTEEQARGALRFAKLGFEIFLSSFQGFLVSVLYCFINKEVQSEIRRGWHHCRLRRSLGEEQRQLPERAFRALPSGSGPGEVPTSRGLSSGTLPGPGNEASRELESYC,–,–,–,–,–,–,–,LoF_arr,0.4783,WT-like_camp,>50% cAMP,1.1583,–,–,1.1583,–
E461* (protein) RAETGSKGQTAGELYQRWERYRRECQETLAAAEPPSGLACNGSFDMYVCWDYAAPNATARASCPWYLPWHHHVAAGFVLRQCGSDGQWGLWRDHTQCENPEKNEAFLDQRLILERLQVMYTVGYSLSLATLLLALLILSLFRRLHCTRNYIHINLFTSFMLRAAAILSRDRLLPRPGPYLGDQALALWNQALAACRTAQIVTQYCVGANYTWLLVEGVYLHSLLVLVGGSEEGHFRYYLLLGWGAPALFVIPWVIVRYLYENTQCWERNEVKAIWWIIRTPILMTILINFLIFIRILGILLSKLRTRQMRCRDYRLRLARSTLTLVPLLGVHEVVFAPVTEEQARGALRFAKLGFEIFLSSFQGFLVSVLYCFINKEVQSEIRRGWHHCRLRRSLGEEQRQLPERAFRALPSGSGPGEVPTSRGLSSGTLPGPGNEASR,–,–,–,–,–,–,–,WT-like_arr,–,GoF_camp,>50% cAMP,–,–,–,–,1.495
